Experimental findings from patent US9260501B2, “Peptide extended insulins” (priority 2006, dated 2016) are described below.

Test [1] deals with purified recombinant human insulin receptor - (minus) exon 11 (human) (UniProt P06213). Kind of test: SPA antibody-capture competition assay, displacement of A14 Tyr[125I]-human insulin from recombinant human insulin receptor minus exon 11; affinity relative to human insulin.
Another test deals with human insulin receptor (Homo sapiens, UniProt P06213). Put plainly: Insulin receptor binding, SPA (Scintillation Proximity Assay) microtiterplate antibody capture assay. The conditions noted are these: binding affinity relative to that of human insulin; purified recombinant human insulin receptor minus exon 11; A14 Tyr[125I]-human insulin tracer. Background: SPA uses beads or plates that emit light when radiolabelled molecules are held near them.
human insulin receptor, sequence (P06213 28-746 isoform P06213-2 limits assumed): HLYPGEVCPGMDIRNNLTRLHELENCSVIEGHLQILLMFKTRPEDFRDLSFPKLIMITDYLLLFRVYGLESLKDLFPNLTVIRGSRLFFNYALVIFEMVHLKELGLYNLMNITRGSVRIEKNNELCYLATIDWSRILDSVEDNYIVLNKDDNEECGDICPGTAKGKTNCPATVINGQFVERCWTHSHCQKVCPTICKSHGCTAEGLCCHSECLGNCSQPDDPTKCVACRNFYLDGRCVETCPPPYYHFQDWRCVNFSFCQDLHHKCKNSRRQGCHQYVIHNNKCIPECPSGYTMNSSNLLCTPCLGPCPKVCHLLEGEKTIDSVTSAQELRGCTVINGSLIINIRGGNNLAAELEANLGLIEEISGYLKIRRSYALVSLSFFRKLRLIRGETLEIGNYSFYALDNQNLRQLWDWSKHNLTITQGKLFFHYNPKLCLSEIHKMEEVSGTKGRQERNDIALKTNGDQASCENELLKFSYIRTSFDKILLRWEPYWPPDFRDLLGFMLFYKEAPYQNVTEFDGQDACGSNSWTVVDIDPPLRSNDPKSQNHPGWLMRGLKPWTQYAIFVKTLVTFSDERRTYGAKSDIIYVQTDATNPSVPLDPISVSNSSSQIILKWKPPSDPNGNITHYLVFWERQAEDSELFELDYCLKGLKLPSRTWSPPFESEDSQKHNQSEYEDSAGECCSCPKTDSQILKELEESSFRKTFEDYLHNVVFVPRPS
human insulin receptor, sequence (P06213 763-1382 partner limits assumed): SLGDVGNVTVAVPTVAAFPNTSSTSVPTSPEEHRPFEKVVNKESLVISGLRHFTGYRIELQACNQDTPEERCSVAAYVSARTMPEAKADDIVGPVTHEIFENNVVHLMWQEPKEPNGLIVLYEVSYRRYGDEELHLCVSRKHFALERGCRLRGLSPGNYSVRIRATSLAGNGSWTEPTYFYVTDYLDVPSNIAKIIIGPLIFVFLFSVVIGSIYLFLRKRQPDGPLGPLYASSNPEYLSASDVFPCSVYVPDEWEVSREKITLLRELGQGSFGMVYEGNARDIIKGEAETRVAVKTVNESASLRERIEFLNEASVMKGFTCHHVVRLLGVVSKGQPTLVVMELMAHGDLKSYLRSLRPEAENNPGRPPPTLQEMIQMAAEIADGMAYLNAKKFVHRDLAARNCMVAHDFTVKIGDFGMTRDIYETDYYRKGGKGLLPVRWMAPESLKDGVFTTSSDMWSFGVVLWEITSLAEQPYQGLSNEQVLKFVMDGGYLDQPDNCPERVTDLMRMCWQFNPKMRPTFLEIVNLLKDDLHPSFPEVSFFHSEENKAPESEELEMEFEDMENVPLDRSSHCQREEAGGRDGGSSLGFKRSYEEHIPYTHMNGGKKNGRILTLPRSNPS

As for “A22-45G desB30 Human Insulin (from UniProt P01308) (ligand)”, the Relative insulin receptor binding in test [1] came to 25%.
Still for that read-out and setting: with “A21Q, A22-A51G, desB30 Human Insulin (from UniProt P01308) (ligand)” the figure was 17%; with “A22-27G desB30 Human Insulin (from UniProt P01308) (ligand)”, 44%.
Same read-out and setting: with “A22-33G desB30 Human Insulin (from UniProt P01308) (ligand)” the figure was 41%; with “A22-39G desB30 Human Insulin (from UniProt P01308) (ligand)”, 30%.
On to “A14E, A21Q, A22-A62G, B25H, desB30 Human Insulin [Example 20]”, for which the “Relative insulin receptor binding” value at human insulin receptor amounted to 2%.
For the substance “A21Q, A22-A45G, B(-6)-(-1G), desB30 Human Insulin (from UniProt P01308) (ligand)”, in test [1], the Relative insulin receptor binding is 14%.
Same read-out and setting: with “A14E, A21Q, A22-A57G, B25H, desB30 Human Insulin (from UniProt P01308) (ligand)” the figure was 14%; with “A21Q, A22-A45G, B(-18)-(-1)G, desB30 Human Insulin (from UniProt P01308) (ligand)”, 13%; with “A14E, A21Q, A22-A62G, B25H, desB30 Human Insulin (from UniProt P01308) (ligand)”, 2%.
Still for that read-out and setting: with “A14E, A21Q, A22-A45G, B25H, desB30 Human Insulin (from UniProt P01308) (ligand)” the figure was 12%; with “A21Q, A22-A45G, desB30 Human Insulin (from UniProt P01308) (ligand)”, 14%.
Take “A14E, A21Q, A22-A45G, B(-12)-(-1)G, B25H, desB30 Human Insulin (from UniProt P01308) (ligand)”: the Relative insulin receptor binding in test [1] worked out at 11%.
On the same count and under the same terms, with “A21Q, A22-A45G, B(-12)-(-1)G, desB30 Human Insulin (from UniProt P01308) (ligand)” the figure was 16%; with “A21Q, A22-A57G, desB30 Human Insulin (from UniProt P01308) (ligand)”, 20%.
Same read-out and setting: with “A14E, A21Q, A22G-A51G, B25H, desB30 Human Insulin (from UniProt P01308) (ligand)” the figure was 12%.
Regarding “A14E, A21Q, A22-A45G, B(-6)-(-1)G, B25H, desB30 Human Insulin (from UniProt P01308) (ligand)”, the Relative insulin receptor binding in test [1] turned out to be 10%.
The same measure, in the same setting: in the case of “A14E, A21Q, A22-A45G, B(-18)-(-1)G, B25H, desB30 Human Insulin (from UniProt P01308) (ligand)” it was 7.2%.
